Measured values reported in patent publication US20050025779A1.

What was measured:
Test in all cases: cell-based or functional assay
[1] = target: HIV-1 92HT594 envelope glycoprotein, on pseudotyped virus (HIV-1)
[2] = target: HIV-1 JRCSF envelope glycoprotein, on pseudotyped virus (HIV-1)
[3] = target: HIV-1 NL4-3 envelope glycoprotein, on pseudotyped virus (HIV-1)
[4] = target: amphotropic murine leukemia virus envelope protein, on pseudotyped virus (amphotropic murine leukemia virus)

| Substance | IC50 of virus infectivity (neutralization), U87 CD4/CCR5 cells [1] [µg/mL] | IC50 of virus infectivity (neutralization), U87 CD4/CXCR4 cells [1] [µg/mL] | IC50 of virus infectivity (neutralization), U87 CD4/CCR5 cells [2] [µg/mL] | IC50 of virus infectivity (neutralization), U87 CD4/CXCR4 cells [3] [µg/mL] | IC50 of virus infectivity (neutralization), U87 CD4/CCR5 cells [4] [µg/mL] | IC50 of virus infectivity (neutralization), U87 CD4/CXCR4 cells [4] [µg/mL] |
| --- | --- | --- | --- | --- | --- | --- |
| monoclonal antibody 4E10 | 2.94 | 2.67 | 7.91 | 1.42 | > 50 | > 50 |
| monoclonal antibody 2G12 | 1.94 | 2.39 | 0.764 | 0.473 | > 50 | > 50 |
| monoclonal antibody 2F5 | 0.857 | 0.748 | 2.1 | 0.477 | > 50 | > 50 |
